13 molecules from patent publication US20210246166A1 (Bayer, published 2021) can be followed below.

To fix the notation:
B1: ((N-Me)G)-IC+SRSLP-(Oic)-I-(Pen)+IP-(3-Aminomethylphenylacetic acid)-OH (peptide)
peptide: [Sar]ICSRSLP[Oic]I[Pen]IP[NHCH2(1,3-C6H4)CH2CO]-OH
modifications: disulfide 3-11; N-terminus assumed
SMILES: CC[C@H](C)[C@H](NC(=O)CNC)C(=O)N[C@H]1CSSC(C)(C)[C@@H](C(=O)N[C@H](C(=O)N2CCC[C@H]2C(=O)NCc2cccc(CC(=O)O)c2)[C@@H](C)CC)NC(=O)[C@H]([C@@H](C)CC)NC(=O)[C@@H]2C[C@@H]3CCCC[C@@H]3N2C(=O)[C@@H]2CCCN2C(=O)[C@H](CC(C)C)NC(=O)[C@H](CO)NC(=O)[C@H](CCCNC(=N)N)NC(=O)[C@H](CO)NC1=O
B2: ((N-Me)G)-IC+SRS-((tBu)A)-PPI-(Pen)+IP-(Orn)-D-OH (peptide)
peptide: [Sar]ICSRS[tBuAla]PPI[Pen]IP[Orn]D-OH
modifications: disulfide 3-11; N-terminus assumed
SMILES: CC[C@H](C)[C@H](NC(=O)CNC)C(=O)N[C@H]1CSSC(C)(C)[C@@H](C(=O)N[C@H](C(=O)N2CCC[C@H]2C(=O)N[C@@H](CCCN)C(=O)N[C@@H](CC(=O)O)C(=O)O)[C@@H](C)CC)NC(=O)[C@H]([C@@H](C)CC)NC(=O)[C@@H]2CCCN2C(=O)[C@@H]2CCCN2C(=O)[C@H](CC(C)(C)C)NC(=O)[C@H](CO)NC(=O)[C@H](CCCNC(=N)N)NC(=O)[C@H](CO)NC1=O
B3: ((N-Me)G)-IC+SRSLP-(Oic)-I-(Pen)+IP-((3-Carboxy)F)-OH (peptide)
peptide: [Sar]ICSRSLP[Oic]I[Pen]IP[Phe(3-COOH)]-OH
modifications: disulfide 3-11; N-terminus assumed
SMILES: CC[C@H](C)[C@H](NC(=O)CNC)C(=O)N[C@H]1CSSC(C)(C)[C@@H](C(=O)N[C@H](C(=O)N2CCC[C@H]2C(=O)N[C@@H](Cc2cccc(C(=O)O)c2)C(=O)O)[C@@H](C)CC)NC(=O)[C@H]([C@@H](C)CC)NC(=O)[C@@H]2C[C@@H]3CCCC[C@@H]3N2C(=O)[C@@H]2CCCN2C(=O)[C@H](CC(C)C)NC(=O)[C@H](CO)NC(=O)[C@H](CCCNC(=N)N)NC(=O)[C@H](CO)NC1=O
B4: (beta-P)-IC+SRS-((tBu)A)-PPI-(Pen)+IPD-OH (peptide)
peptide: PICSRS[tBuAla]PPI[Pen]IPD-OH
modifications: disulfide 3-11; N-terminus assumed
SMILES: CC[C@H](C)[C@H](NC(=O)[C@@H]1CCCN1)C(=O)N[C@H]1CSSC(C)(C)[C@@H](C(=O)N[C@H](C(=O)N2CCC[C@H]2C(=O)N[C@@H](CC(=O)O)C(=O)O)[C@@H](C)CC)NC(=O)[C@H]([C@@H](C)CC)NC(=O)[C@@H]2CCCN2C(=O)[C@@H]2CCCN2C(=O)[C@H](CC(C)(C)C)NC(=O)[C@H](CO)NC(=O)[C@H](CCCNC(=N)N)NC(=O)[C@H](CO)NC1=O
B5: (Piperidin-4-ylacetic acid)-IC+SRS-((tBu)A)-PPIC+IPD-OH (peptide)
peptide: {Piperidin‑4‑ylacetic acid}-ICSRS[tBuAla]PPICIPD-OH
modifications: disulfide 2-10
SMILES: CC[C@H](C)[C@H](NC(=O)CC1CCNCC1)C(=O)N[C@H]1CSSC[C@@H](C(=O)N[C@H](C(=O)N2CCC[C@H]2C(=O)N[C@@H](CC(=O)O)C(=O)O)[C@@H](C)CC)NC(=O)[C@H]([C@@H](C)CC)NC(=O)[C@@H]2CCCN2C(=O)[C@@H]2CCCN2C(=O)[C@H](CC(C)(C)C)NC(=O)[C@H](CO)NC(=O)[C@H](CCCNC(=N)N)NC(=O)[C@H](CO)NC1=O
B6: ((N-Me)G)-IC+SRS-((tBu)A)-PPI-(Pen)+IP-((3-Carboxy)F)-OH (peptide)
peptide: [Sar]ICSRS[tBuAla]PPI[Pen]IP[Phe(3-COOH)]-OH
modifications: disulfide 3-11; N-terminus assumed
SMILES: CC[C@H](C)[C@H](NC(=O)CNC)C(=O)N[C@H]1CSSC(C)(C)[C@@H](C(=O)N[C@H](C(=O)N2CCC[C@H]2C(=O)N[C@@H](Cc2cccc(C(=O)O)c2)C(=O)O)[C@@H](C)CC)NC(=O)[C@H]([C@@H](C)CC)NC(=O)[C@@H]2CCCN2C(=O)[C@@H]2CCCN2C(=O)[C@H](CC(C)(C)C)NC(=O)[C@H](CO)NC(=O)[C@H](CCCNC(=N)N)NC(=O)[C@H](CO)NC1=O
B7: ((N-Me)G)-IC+SRS-((tBu)A)-PPI-(Pen)+IP-(PEG3(16atoms))-OH (peptide)
peptide: [Sar]ICSRS[tBuAla]PPI[Pen]IP[PEG4]-OH
modifications: disulfide 3-11; N-terminus assumed
SMILES: CC[C@H](C)[C@H](NC(=O)CNC)C(=O)N[C@H]1CSSC(C)(C)[C@@H](C(=O)N[C@H](C(=O)N2CCC[C@H]2C(=O)NCCOCCOCCOCCOCCC(=O)O)[C@@H](C)CC)NC(=O)[C@H]([C@@H](C)CC)NC(=O)[C@@H]2CCCN2C(=O)[C@@H]2CCCN2C(=O)[C@H](CC(C)(C)C)NC(=O)[C@H](CO)NC(=O)[C@H](CCCNC(=N)N)NC(=O)[C@H](CO)NC1=O
B8: ((N-Me)G)-IC+SRSLP-(Oic)-I-(Pen)+IPR-OH (peptide)
peptide: [Sar]ICSRSLP[Oic]I[Pen]IPR-OH
modifications: disulfide 3-11; N-terminus assumed
SMILES: CC[C@H](C)[C@H](NC(=O)CNC)C(=O)N[C@H]1CSSC(C)(C)[C@@H](C(=O)N[C@H](C(=O)N2CCC[C@H]2C(=O)N[C@@H](CCCNC(=N)N)C(=O)O)[C@@H](C)CC)NC(=O)[C@H]([C@@H](C)CC)NC(=O)[C@@H]2C[C@@H]3CCCC[C@@H]3N2C(=O)[C@@H]2CCCN2C(=O)[C@H](CC(C)C)NC(=O)[C@H](CO)NC(=O)[C@H](CCCNC(=N)N)NC(=O)[C@H](CO)NC1=O
B9: ((N-Me))-GIC+SRSLP-(Oic)-I-(Pen)+I-((S)-4-Piperazine-2-carboxylic acid)-OH (peptide)
peptide: [Sar]ICSRSLP[Oic]I[Pen]I[(S)‑4‑Piperazine‑2‑carboxylic acid]-OH
modifications: disulfide 3-11
B10: (Orn)-IC+SRS-((tBu)A)-PPI-((N-Me)C)+IPD-OH (peptide)
peptide: [Orn]ICSRS[tBuAla]PPI[NMeC]IPD-OH
modifications: disulfide 3-11; N-terminus assumed
SMILES: CC[C@H](C)[C@H](NC(=O)[C@@H](N)CCCN)C(=O)N[C@H]1CSSC[C@@H](C(=O)N[C@H](C(=O)N2CCC[C@H]2C(=O)N[C@@H](CC(=O)O)C(=O)O)[C@@H](C)CC)N(C)C(=O)[C@H]([C@@H](C)CC)NC(=O)[C@@H]2CCCN2C(=O)[C@@H]2CCCN2C(=O)[C@H](CC(C)(C)C)NC(=O)[C@H](CO)NC(=O)[C@H](CCCNC(=N)N)NC(=O)[C@H](CO)NC1=O
B11: ((N-Me)G)-IC+SRSLP-(Oic)-I-(Pen)+IP-(4-Aminomethylphenylacetic acid)-OH (peptide)
peptide: [Sar]ICSRSLP[Oic]I[Pen]IP[4‑Aminomethylphenylacetic acid]-OH
modifications: disulfide 3-11; N-terminus assumed
SMILES: CC[C@H](C)[C@H](NC(=O)CNC)C(=O)N[C@H]1CSSC(C)(C)[C@@H](C(=O)N[C@H](C(=O)N2CCC[C@H]2C(=O)NCc2ccc(CC(=O)O)cc2)[C@@H](C)CC)NC(=O)[C@H]([C@@H](C)CC)NC(=O)[C@@H]2C[C@@H]3CCCC[C@@H]3N2C(=O)[C@@H]2CCCN2C(=O)[C@H](CC(C)C)NC(=O)[C@H](CO)NC(=O)[C@H](CCCNC(=N)N)NC(=O)[C@H](CO)NC1=O
B12: aIC+SRSLP-(Oic)-I-(Pen)-+IP-(3-Aminomethylphenylacetic acid)-OH (peptide)
peptide: [dA]ICSRSLP[Oic]I[Pen]IP[NHCH2(1,3-C6H4)CH2CO]-OH
modifications: disulfide 3-11; N-terminus assumed
SMILES: CC[C@H](C)[C@H](NC(=O)[C@@H](C)N)C(=O)N[C@H]1CSSC(C)(C)[C@@H](C(=O)N[C@H](C(=O)N2CCC[C@H]2C(=O)NCc2cccc(CC(=O)O)c2)[C@@H](C)CC)NC(=O)[C@H]([C@@H](C)CC)NC(=O)[C@@H]2C[C@@H]3CCCC[C@@H]3N2C(=O)[C@@H]2CCCN2C(=O)[C@H](CC(C)C)NC(=O)[C@H](CO)NC(=O)[C@H](CCCNC(=N)N)NC(=O)[C@H](CO)NC1=O
B13: ((N-Me)G)-IC+SRSLP-(Oic)-I-(Pen)+IPD-(PEG2(13 atoms))-OH (peptide)
peptide: [Sar]ICSRSLP[Oic]I[Pen]IPD[PEG3]-OH
modifications: disulfide 3-11; N-terminus assumed
SMILES: CC[C@H](C)[C@H](NC(=O)CNC)C(=O)N[C@H]1CSSC(C)(C)[C@@H](C(=O)N[C@H](C(=O)N2CCC[C@H]2C(=O)N[C@@H](CC(=O)O)C(=O)NCCOCCOCCOCCC(=O)O)[C@@H](C)CC)NC(=O)[C@H]([C@@H](C)CC)NC(=O)[C@@H]2C[C@@H]3CCCC[C@@H]3N2C(=O)[C@@H]2CCCN2C(=O)[C@H](CC(C)C)NC(=O)[C@H](CO)NC(=O)[C@H](CCCNC(=N)N)NC(=O)[C@H](CO)NC1=O

Numbered stars: 1 amine (or outer) side, 2 acyl side, 3 side chain; on linkers, the order of the positions; unused ones are H or OH. Bridge positions count the residues as written; N and C are the ends. Square brackets hold non-standard residues; d marks the D form. Ends that are not written are not given here. * marks the point of attachment. (S)‑4‑Piperazine‑2‑carboxylic acid = (S)-4-piperazine-2-carboxylic acid; 4‑Aminomethylphenylacetic acid = O=C(Cc1ccc(CN[*:1])cc1)[*:2]; NHCH2(1,3-C6H4)CH2CO = O=C(Cc1cccc(CN[*:1])c1)[*:2]; Phe(3-COOH) = N[C@@H](Cc1cccc(C(=O)O)c1)C(=O)O; Piperidin‑4‑ylacetic acid = O=C(CC1CCNCC1)*; Oic = O=C(O)[C@@H]1C[C@@H]2CCCC[C@@H]2N1; tBuAla = CC(C)(C)C[C@H](N)C(=O)O; PEG4 = NCCOCCOCCOCCOCCC(=O)O; Pen = CC(C)(S)[C@H](N)C(=O)O; NMeC = CN[C@@H](CS)C(=O)O; PEG3 = NCCOCCOCCOCCC(=O)O; Orn = NCCC[C@H](N)C(=O)O; Sar = CNCC(=O)O

Recombinant human MASP2 enzyme (fragment corresponding to amino acids 297-686, C-terminal His Tag), sequence (O00187 other isoform, or with tags, fused parts or gaps limits assumed): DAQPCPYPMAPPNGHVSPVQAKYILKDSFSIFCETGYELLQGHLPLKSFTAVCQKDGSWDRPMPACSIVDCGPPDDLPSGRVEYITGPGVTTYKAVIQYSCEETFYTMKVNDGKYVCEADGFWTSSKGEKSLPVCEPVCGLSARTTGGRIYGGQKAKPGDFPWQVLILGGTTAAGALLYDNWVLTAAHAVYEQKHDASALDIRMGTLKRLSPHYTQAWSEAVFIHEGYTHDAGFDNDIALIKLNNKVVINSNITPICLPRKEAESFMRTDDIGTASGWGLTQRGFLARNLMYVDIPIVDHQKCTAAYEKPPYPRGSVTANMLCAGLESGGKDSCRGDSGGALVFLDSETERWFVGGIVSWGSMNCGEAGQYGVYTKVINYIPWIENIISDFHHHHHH

One test concerns the target T1, Recombinant human MASP1 enzyme (fragment corresponding to amino acids 297-699, C-terminal His Tag) (human, UniProt P48740 297-699).
T1 sequence: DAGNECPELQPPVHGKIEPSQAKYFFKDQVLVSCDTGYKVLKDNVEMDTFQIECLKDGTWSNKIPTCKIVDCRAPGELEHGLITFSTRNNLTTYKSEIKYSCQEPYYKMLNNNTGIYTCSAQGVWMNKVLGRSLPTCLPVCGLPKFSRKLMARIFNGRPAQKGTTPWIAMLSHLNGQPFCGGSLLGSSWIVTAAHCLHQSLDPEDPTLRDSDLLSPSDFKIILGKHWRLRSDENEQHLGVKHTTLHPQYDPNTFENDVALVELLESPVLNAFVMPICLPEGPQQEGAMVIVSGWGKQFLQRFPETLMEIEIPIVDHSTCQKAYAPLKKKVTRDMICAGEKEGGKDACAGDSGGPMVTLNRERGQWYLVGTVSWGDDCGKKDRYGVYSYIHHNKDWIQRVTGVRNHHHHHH
Kind of test: cell-based or functional assay.
As for B1, the “human MASP1 IC50” value was determined as 0.0096 µM.
The same measure, in the same setting: as for B2, the figure is 0.0038 µM.
Same read-out and setting: with B3 the figure was 0.0054 µM.
Take B4: the “human MASP1 IC50” value stood at 0.003 µM.
On the same count and under the same terms, with B5 the figure was 0.026 µM; with B6, 0.0028 µM; with B7, 0.0021 µM.
Regarding B8, the “human MASP1 IC50” value was determined as 0.00235 µM.
The same measure, in the same setting: as for B9, the figure is 0.0024 µM.
On the same count and under the same terms, with B10 the figure was 0.00585 µM; with B11, 0.0038 µM.
With B12, the “human MASP1 IC50” value was 0.0037 µM.
For the molecule B13, the “human MASP1 IC50” value was 0.0055 µM.

Another test has as its target Recombinant human MASP2 enzyme (fragment corresponding to amino acids 297-686, C-terminal His Tag) (human, UniProt O00187 297-686). Kind of test: cell-based or functional assay.
Turning to B1, the “human MASP2 IC50” value was 0.172 µM.
For B2, the “human MASP2 IC50” value was 0.032 µM.
Same read-out and setting: with B3 the figure was 0.064 µM; with B4, 0.035 µM; with B5, 0.018 µM.
In the case of B6, the “human MASP2 IC50” value was determined as 0.025 µM.
Same read-out and setting: as for B7, the figure is 0.035 µM.
Same read-out and setting: with B8 the figure was 0.048 µM; with B9, 0.078 µM.
Still for that read-out and setting: with B10 the figure was 0.175 µM; with B11, 0.061 µM; with B12, 0.037 µM.
On to B13, for which the “human MASP2 IC50” value came out at 0.12 µM.
